This is an account of results in US20170258870.

The test system of the series is Helix 5 TAT peptide.

recombinant GC mutant N370S: the “GC enzyme activity (4-MU substrate)” value is recorded as “the helix 5 TAT-peptide led to a four-fold increase in the activity of the N370S mutant”.
